Data: publication PMC3912200, “Structural and Functional Characterization of Cargo-Binding Sites on the μ4-Subunit of Adaptor Protein Complex 4” (PLoS ONE, 2014)

B1: S254K: μ4 mutant, μ4-binding site, Y2H construct (protein)
chain: MISQFFILSSKGDPLIYKDFRGDSGGRDVAELFYRKLTGLPGDESPVVMHHHGRHFIHIRHSGLYLVVTTSENVSPFSLLELLSRLATLLGDYCGSLGEGTISRNVALVYELLDEVLDYGYVQTTSTEMLRNFIQTEAVVSKPFSLFDLSSVGLFGAETQQSKVAPSSAASRPVLSSRSDQSQKNEVFLDVVERLSVLIASNGSLLKVDVQGEIRLKSFLPSGSEMRIGLTEEFCVGKSELRGYGPGIRVDEVKFHSSVNLDEFESHRILRLQPPQGELTVMRYQLSDDLPSPLPFRLFPSVQWDRGSGRLQVYLKLRCDLLSKSQALNVRLHLPLPRGVVSLSQELSSPEQKAELAEGALRWDLPRVQGGSQLSGLFQMDVPGPPGPPSHGLSTSASPLGLGPASLSFELPRHTCSGLQVRFLRLAFRPCGNANPHKWVRHLSHSDAYVIRI
modifications: left off: Gal4 activation domain, end not stated, kept
B2: D190S: μ4 mutant, μ2-binding site, Y2H construct (protein)
chain: MISQFFILSSKGDPLIYKDFRGDSGGRDVAELFYRKLTGLPGDESPVVMHHHGRHFIHIRHSGLYLVVTTSENVSPFSLLELLSRLATLLGDYCGSLGEGTISRNVALVYELLDEVLDYGYVQTTSTEMLRNFIQTEAVVSKPFSLFDLSSVGLFGAETQQSKVAPSSAASRPVLSSRSDQSQKNEVFLSVVERLSVLIASNGSLLKVDVQGEIRLKSFLPSGSEMRIGLTEEFCVGKSELRGYGPGIRVDEVSFHSSVNLDEFESHRILRLQPPQGELTVMRYQLSDDLPSPLPFRLFPSVQWDRGSGRLQVYLKLRCDLLSKSQALNVRLHLPLPRGVVSLSQELSSPEQKAELAEGALRWDLPRVQGGSQLSGLFQMDVPGPPGPPSHGLSTSASPLGLGPASLSFELPRHTCSGLQVRFLRLAFRPCGNANPHKWVRHLSHSDAYVIRI
modifications: left off: Gal4 activation domain, end not stated, kept
B3: K217A: μ4 mutant, μ2-binding site, Y2H construct (protein)
chain: MISQFFILSSKGDPLIYKDFRGDSGGRDVAELFYRKLTGLPGDESPVVMHHHGRHFIHIRHSGLYLVVTTSENVSPFSLLELLSRLATLLGDYCGSLGEGTISRNVALVYELLDEVLDYGYVQTTSTEMLRNFIQTEAVVSKPFSLFDLSSVGLFGAETQQSKVAPSSAASRPVLSSRSDQSQKNEVFLDVVERLSVLIASNGSLLKVDVQGEIRLASFLPSGSEMRIGLTEEFCVGKSELRGYGPGIRVDEVSFHSSVNLDEFESHRILRLQPPQGELTVMRYQLSDDLPSPLPFRLFPSVQWDRGSGRLQVYLKLRCDLLSKSQALNVRLHLPLPRGVVSLSQELSSPEQKAELAEGALRWDLPRVQGGSQLSGLFQMDVPGPPGPPSHGLSTSASPLGLGPASLSFELPRHTCSGLQVRFLRLAFRPCGNANPHKWVRHLSHSDAYVIRI
modifications: left off: Gal4 activation domain, end not stated, kept
B4: T280A: μ4 mutant, μ4-binding site, Y2H construct (protein)
chain: MISQFFILSSKGDPLIYKDFRGDSGGRDVAELFYRKLTGLPGDESPVVMHHHGRHFIHIRHSGLYLVVTTSENVSPFSLLELLSRLATLLGDYCGSLGEGTISRNVALVYELLDEVLDYGYVQTTSTEMLRNFIQTEAVVSKPFSLFDLSSVGLFGAETQQSKVAPSSAASRPVLSSRSDQSQKNEVFLDVVERLSVLIASNGSLLKVDVQGEIRLKSFLPSGSEMRIGLTEEFCVGKSELRGYGPGIRVDEVSFHSSVNLDEFESHRILRLQPPQGELAVMRYQLSDDLPSPLPFRLFPSVQWDRGSGRLQVYLKLRCDLLSKSQALNVRLHLPLPRGVVSLSQELSSPEQKAELAEGALRWDLPRVQGGSQLSGLFQMDVPGPPGPPSHGLSTSASPLGLGPASLSFELPRHTCSGLQVRFLRLAFRPCGNANPHKWVRHLSHSDAYVIRI
modifications: left off: Gal4 activation domain, end not stated, kept
B5: F188A: μ4 mutant, μ2-binding site, Y2H construct (protein)
chain: MISQFFILSSKGDPLIYKDFRGDSGGRDVAELFYRKLTGLPGDESPVVMHHHGRHFIHIRHSGLYLVVTTSENVSPFSLLELLSRLATLLGDYCGSLGEGTISRNVALVYELLDEVLDYGYVQTTSTEMLRNFIQTEAVVSKPFSLFDLSSVGLFGAETQQSKVAPSSAASRPVLSSRSDQSQKNEVALDVVERLSVLIASNGSLLKVDVQGEIRLKSFLPSGSEMRIGLTEEFCVGKSELRGYGPGIRVDEVSFHSSVNLDEFESHRILRLQPPQGELTVMRYQLSDDLPSPLPFRLFPSVQWDRGSGRLQVYLKLRCDLLSKSQALNVRLHLPLPRGVVSLSQELSSPEQKAELAEGALRWDLPRVQGGSQLSGLFQMDVPGPPGPPSHGLSTSASPLGLGPASLSFELPRHTCSGLQVRFLRLAFRPCGNANPHKWVRHLSHSDAYVIRI
modifications: left off: Gal4 activation domain, end not stated, kept
B6: T280R: μ4 mutant, μ4-binding site, Y2H construct (protein)
chain: MISQFFILSSKGDPLIYKDFRGDSGGRDVAELFYRKLTGLPGDESPVVMHHHGRHFIHIRHSGLYLVVTTSENVSPFSLLELLSRLATLLGDYCGSLGEGTISRNVALVYELLDEVLDYGYVQTTSTEMLRNFIQTEAVVSKPFSLFDLSSVGLFGAETQQSKVAPSSAASRPVLSSRSDQSQKNEVFLDVVERLSVLIASNGSLLKVDVQGEIRLKSFLPSGSEMRIGLTEEFCVGKSELRGYGPGIRVDEVSFHSSVNLDEFESHRILRLQPPQGELRVMRYQLSDDLPSPLPFRLFPSVQWDRGSGRLQVYLKLRCDLLSKSQALNVRLHLPLPRGVVSLSQELSSPEQKAELAEGALRWDLPRVQGGSQLSGLFQMDVPGPPGPPSHGLSTSASPLGLGPASLSFELPRHTCSGLQVRFLRLAFRPCGNANPHKWVRHLSHSDAYVIRI
modifications: left off: Gal4 activation domain, end not stated, kept
B7: W439S: μ4 mutant, μ2-binding site, Y2H construct (protein)
chain: MISQFFILSSKGDPLIYKDFRGDSGGRDVAELFYRKLTGLPGDESPVVMHHHGRHFIHIRHSGLYLVVTTSENVSPFSLLELLSRLATLLGDYCGSLGEGTISRNVALVYELLDEVLDYGYVQTTSTEMLRNFIQTEAVVSKPFSLFDLSSVGLFGAETQQSKVAPSSAASRPVLSSRSDQSQKNEVFLDVVERLSVLIASNGSLLKVDVQGEIRLKSFLPSGSEMRIGLTEEFCVGKSELRGYGPGIRVDEVSFHSSVNLDEFESHRILRLQPPQGELTVMRYQLSDDLPSPLPFRLFPSVQWDRGSGRLQVYLKLRCDLLSKSQALNVRLHLPLPRGVVSLSQELSSPEQKAELAEGALRWDLPRVQGGSQLSGLFQMDVPGPPGPPSHGLSTSASPLGLGPASLSFELPRHTCSGLQVRFLRLAFRPCGNANPHKSVRHLSHSDAYVIRI
modifications: left off: Gal4 activation domain, end not stated, kept
B8: S257Q: μ4 mutant, μ4-binding site, Y2H construct (protein)
chain: MISQFFILSSKGDPLIYKDFRGDSGGRDVAELFYRKLTGLPGDESPVVMHHHGRHFIHIRHSGLYLVVTTSENVSPFSLLELLSRLATLLGDYCGSLGEGTISRNVALVYELLDEVLDYGYVQTTSTEMLRNFIQTEAVVSKPFSLFDLSSVGLFGAETQQSKVAPSSAASRPVLSSRSDQSQKNEVFLDVVERLSVLIASNGSLLKVDVQGEIRLKSFLPSGSEMRIGLTEEFCVGKSELRGYGPGIRVDEVSFHQSVNLDEFESHRILRLQPPQGELTVMRYQLSDDLPSPLPFRLFPSVQWDRGSGRLQVYLKLRCDLLSKSQALNVRLHLPLPRGVVSLSQELSSPEQKAELAEGALRWDLPRVQGGSQLSGLFQMDVPGPPGPPSHGLSTSASPLGLGPASLSFELPRHTCSGLQVRFLRLAFRPCGNANPHKWVRHLSHSDAYVIRI
modifications: left off: Gal4 activation domain, end not stated, kept

Test system: cytosolic tail of APP
Assay: Yeast two-hybrid (Y2H) analysis of μ4 with the APP tail
Type: binding
Settings: growth on -His plates, 30°C; for effect of mutation on binding to the APP YKFFE signal (Y2H): mutations at μ4-binding site; for effect of mutation on interaction of the APP tail with μ4 (Y2H): mutations at μ2-binding site
Description: The cloning of the tail of APP (residues 649–695), full-length human μ4, and all the other yeast two-hybrid (Y2H) constructs, and the cloning of the C-terminal domain of μ4 for expression in E. coli was described previously. To generate a construct for mammalian expression, full-length human μ4 was obtained by PCR amplification and cloned into the EcoRI and SalI sites of pEGFP-N1 (BD BiosciencesClontech, Mountain View, CA) including a stop-codon before the GFP coding sequence. The cloning of APP-GFP carrying the double mutation F615P/D664A was described previously. Single amino acid substitutions were introduced using the QuikChange mutagenesis kit (Stratagene, La Jolla, CA). Y2H assays were performed as previously described. A set of pCI-neo (Promega) constructs encoding hemagglutinin (HA)-epitope tagged wild-type or mutants of human μ4 was a generous gift of J. Bonifacino and R. Mattera (Cell Biology and Metabolism Program, NICHD, NIH). The nucleotide sequences of all recombinant constructs were confirmed by dideoxy sequencing.
Figure 1 Yeast two-hybrid analysis of the interaction of μ4 with the cytosolic tail of APP. (A) Superposition of the surface and ribbon representations of human wild-type μ4 C-terminal domain (pdb entry 3L81). The insets show an enlargement of the μ4-binding site and the putative μ2-binding site with residues chosen for the yeast two-hybrid (Y2H) analysis. The APP peptide (TYKFFEQ; stick model) bound to the μ4-binding site is in yellow, and the EGFR peptide (FYRALM; stick model; pdb entry 1BW8) superposed to the putative μ2-binding site is in magenta. (B) Sequence alignment of the C-terminal domain of the μ subunits of known crystal structure depicting critical residues at the corresponding μ2- and μ4-binding sites. Disordered loops are in yellow letters, and arrows and cylinders represent β-strands and α-helices, respectively. M.m., Mus musculus; R.n., Rattus norvegicus; H.s., Homo sapiens. (C) and (D) Yeast were co-transformed with plasmids encoding Gal4bd fused to the cytosolic tail of the amyloid precursor protein (APP) indicated on the left, and Gal4ad fused to wild-type or mutant μ4 constructs indicated on top of each panel. (C) Y2H analysis of μ4 with mutations on the YKFFE binding site (μ4-binding site). (D) Y2H analysis of μ4 with mutations on a putative YXXØ binding site (μ2-binding site). Mouse p53 fused to Gal4bd and SV40 large T antigen (T Ag) fused to Gal4ad were used as controls. Co-transformed cells were spotted onto His-deficient (-His) or His-containing (+His) plates and incubated at 30°C. Growth is indicative of interactions. Some mutations on either of the two sites affect the interaction of μ4 with the cytosolic tail of APP.

Row | Molecule | effect of mutation on binding to the APP YKFFE signal (Y2H) | effect of mutation on interaction of the APP tail with μ4 (Y2H)
1 | B1 | little or no effects | 
2 | B2 |  | little or no effect
3 | B3 |  | little or no effect
4 | B4 | little or no effects | 
5 | B5 |  | little or no effect
6 | B6 | little or no effects | 
7 | B7 |  | little or no effect
8 | B8 | little or no effects | 
